# Measurements as given in patent US12042530B2, “Target peptides for immunotherapy and diagnostics” (University of Virginia Patent Foundation, priority 2012, dated 2024).
# Non-standard residues stand in square brackets, D forms with d. No end group written: not given here. pS = N[C@@H](COP(=O)(O)O)C(=O)O
# What was measured:
# [1] = biological target: T1, HLA-B*0702 (HLA-B7) peptide complexes (Homo sapiens, UniProt P01889); assay: HLA-B*0702 phosphopeptides associated with leukemia samples (isolation of HLA-associated peptides); details: for Copies/cell class, ALL1: acute lymphoblastic leukemia sample ALL1; for Copies/cell class, HCL1: hairy cell leukemia sample HCL1; for Copies/cell class, T Cell: healthy T cells
# T1 construct: endogenous in cells; host or cells: JY B-lymphoblastoid line; primary ALL, CLL, HCL, AML samples; bone marrow; healthy B and T cells
# How it was run: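 Class I HLA-A2 and HLA-B7 complexes were immunoaffinity-purified (BB7.2 or MEL antibodies on protein A) from CHAPS lysates of ~1.2-14×10^9 cells, using phosphatase and protease inhibitors. Sources were Ficoll-purified (>98%) CLL, MCL, ALL and AML cells, healthy splenic T/B cells and JY cells. Peptides were eluted with 10% acetic acid.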
# HLA-B*0702 = biological target: T2, HLA-B*0702 (Homo sapiens, UniProt P01889); assay: Phosphopeptides presented in association with class I molecules (HLA-B*0702) on cancer cells: melanoma and/or leukemia; parameters: key: Melanoma (M); Leukemia (L); L/M: Melanoma (M) and/or Leukemia (L); details: cancer type on which the HLA-B*0702 phosphopeptide is presented
# T2 construct: endogenous in cells; host or cells: melanoma and/or leukemia cells
# [2] = biological target: T3, HLA-A*0201 (HLA-A2) peptide complexes (Homo sapiens, UniProt P04439, D140Y/D185E/D98H/E176V/E277Q/G131W/G231S/I119V/I121R/I166T/I218V/L300P/L318F/N151K/N90K/P208A/P217A/Q86G/Q94H/R138H/R169H/T345S); assay: HLA-A*0201 phosphopeptides associated with leukemia samples (isolation of HLA-associated peptides); details: for Copies/cell class, JY: EBV transformed B lymphoblastoid cell line JY; for Copies/cell class, AML1: acute myeloid leukemia sample AML1; for Copies/cell class, CLL1: chronic lymphocytic leukemia sample CLL1; for Copies/cell class, B Cell: healthy B cells; for Copies/cell class, T Cell: healthy T cells; for Copies/cell class, MCL: mantle cell lymphoma sample
# T3 construct: endogenous in cells; host or cells: JY B-lymphoblastoid line; primary CLL, MCL, AML, ALL samples; healthy splenic T and B cells
# Description: To identify naturally processed tumor-associated phosphopeptides, HLA-A*0201 (HLA-A2) and HLA-B*0702 (HLA-B7) peptide complexes from four (4) chronic lymphocytic leukemia (CLL) tumor samples, a mantle cell lymphoma sample (MCL), one acute lymphoblastic leukemia (ALL), and an acute myeloid leukemia (AML) sample, in addition to healthy splenic T and B-cells and the cultured lymphoblastoid cell line JY were isolated. These efforts yielded 10 HLA-A2-restricted and 86 HLA-B7-restricted phosphopeptide antigens (see Tables 6 and 7).
# All cell lines were grown at 37° C. with 5% CO2 in growth medium consisting of RPMI 1640 supplemented with 10% FCS and two mM L-glutamine. Blood or leukapheresis samples were taken from patients with high-burden leukemia in heparin. Tumor cells were recovered by layering the blood over density gradient (Ficoll) and collecting the tumor layer following centrifugation. The tumor was washed in tris-buffered saline (TBS). The purity of the tumor was assessed using flow cytometry and was >98% pure in all cases. For healthy T and B-cell populations, a normal spleen sample processed and tonsil sample was collected and lymphocytes released through mechanical disruption. Mononuclear cells were isolated using a density gradient and 10^9 T cells isolated using anti-CD19 or anti-CD3 microbeads (Miltenyi Biotec Inc., Auburn, California, United States of America) with purity >98% were obtained. Bone marrow sample was obtained from an elective orthopedic procedure and red cell-depleted using hypotonic lysis. This sample was not processed further.
# Class I MHC molecules were immunoaffinity purified from the JY cell line or from primary tumor samples, and their associated peptides were extracted as previously described in Zarling et al., 2006. Approximately 1.2-14×10^9 cells were lysed in a solution containing 20 mM Tris-HCl (pH 8.0), 150 mM NaCl, 1% CHAPS, one mM PMSF, five μg/mL aprotinin, 10 μg/mL leupeptin, 10 μg/mL pepstatin A, 1 μg/ml calyculin A, and phosphatase inhibitor (cocktails I and II; Sigma-Aldrich). The mixture was subjected to centrifugation and the resulting supernatant was passed over protein A sepharose pre-loaded with the HLA-A2-specific antibody BB7.2 or HLA-B7-specific antibody MEL Peptides were eluted from the purified class I MHC molecules with 10% acetic acid.
Substance,"Copies/cell class, AML1 [1]",L/M (HLA-B*0702),"Copies/cell class, CLL2 [2]","Copies/cell class, CLL3 [2]","Copies/cell class, CLL4 [2]","Copies/cell class, JY [2]","Copies/cell class, AML1 [2]","Copies/cell class, CLL1 [2]","Copies/cell class, B Cell [2]","Copies/cell class, T Cell [2]","Copies/cell class, MCL [2]",also measured
370 (SPGLARKR[pS]L; listed as Homo sapiens) [compound 370],1 (1 indicates <1 copy/cell),L,–,–,–,–,–,–,–,–,–,–
371 (SPK[pS]PGLKA; listed as Homo sapiens) [compound 371],1 (1 indicates <1 copy/cell),L,–,–,–,–,–,–,–,–,–,"Copies/cell class, CLL2 [1]: 3 (3 indicates 6-25 copies per cell); Copies/cell class, CLL4 [1]: 3 (3 indicates 6-25 copies per cell); Copies/cell class, JY [1]: 4 (4 indicates >25 copies per cell); Copies/cell class, ALL1 [1]: 1 (1 indicates <1 copy/cell); Copies/cell class, HCL1 [1]: 2 (2 indicates 1-5 copies/cell); Copies/cell class, T Cell [1]: 1 (1 indicates <1 copy/cell); Copies/cell class, BM ([1]; healthy bone marrow): 1 (1 indicates <1 copy/cell)"
374 (SPRR[pS]RSISL; listed as Homo sapiens) [compound 374],4 (4 indicates >25 copies per cell),L/M,–,–,–,–,–,–,–,–,–,–
377 (SPR[pS]PGKPM; listed as Homo sapiens) [compound 377],2 (2 indicates 1-5 copies/cell),L,–,–,–,–,–,–,–,–,–,"Copies/cell class, CLL2 [1]: 1 (1 indicates <1 copy/cell); Copies/cell class, CLL4 [1]: 2 (2 indicates 1-5 copies/cell); Copies/cell class, JY [1]: 4 (4 indicates >25 copies per cell); Copies/cell class, ALL1 [1]: 1 (1 indicates <1 copy/cell); Copies/cell class, HCL1 [1]: 2 (2 indicates 1-5 copies/cell)"
379 (SPR[pS]PSTTYL; listed as Homo sapiens) [compound 379],2 (2 indicates 1-5 copies/cell),L,–,–,–,–,–,–,–,–,–,–
382 (SPS[pS]PSVRRQL; listed as Homo sapiens) [compound 382],2 (2 indicates 1-5 copies/cell),L,–,–,–,–,–,–,–,–,–,"Copies/cell class, B Cell ([1]; healthy B cells): 2 (2 indicates 1-5 copies/cell); Copies/cell class, T Cell [1]: 2 (2 indicates 1-5 copies/cell)"
383 (SPSTSRSGG[pS]SRL; listed as Homo sapiens) [compound 383],1 (1 indicates <1 copy/cell),L,–,–,–,–,–,–,–,–,–,–
385 (TPAQPQRR[pS]L; listed as Homo sapiens) [compound 385],–,L,–,–,–,–,–,–,–,–,–,"Copies/cell class, ALL1 [1]: 1 (1 indicates <1 copy/cell)"
386 (TPI[pS]PGRASGM; listed as Homo sapiens) [compound 386],–,L,–,–,–,–,–,–,–,–,–,"Copies/cell class, ALL1 [1]: 1 (1 indicates <1 copy/cell)"
387 (TPR[pS]PPLGL; listed as Homo sapiens) [compound 387],3 (3 indicates 6-25 copies per cell),L,–,–,–,–,–,–,–,–,–,"Copies/cell class, CLL2 [1]: 3 (3 indicates 6-25 copies per cell); Copies/cell class, CLL4 [1]: 2 (2 indicates 1-5 copies/cell); Copies/cell class, JY [1]: 4 (4 indicates >25 copies per cell); Copies/cell class, HCL1 [1]: 3 (3 indicates 6-25 copies per cell)"
388 (TPR[pS]PPLGLI; listed as Homo sapiens) [compound 388],3 (3 indicates 6-25 copies per cell),L,–,–,–,–,–,–,–,–,–,"Copies/cell class, CLL2 [1]: 2 (2 indicates 1-5 copies/cell); Copies/cell class, CLL4 [1]: 2 (2 indicates 1-5 copies/cell); Copies/cell class, JY [1]: 4 (4 indicates >25 copies per cell); Copies/cell class, HCL1 [1]: 2 (2 indicates 1-5 copies/cell)"
389 (VPR[pS]PKHAHSSSL; listed as Homo sapiens) [compound 389],1 (1 indicates <1 copy/cell),L,–,–,–,–,–,–,–,–,–,–
391 (YQR[pS]FDEVEGV; listed as Homo sapiens) [compound 391],1 (1 indicates <1 copy/cell),L,–,–,–,–,–,–,–,–,–,–
392 (YQR[pS]FDEVEGVF; listed as Homo sapiens) [compound 392],2 (2 indicates 1-5 copies/cell),L,–,–,–,–,–,–,–,–,–,–
436 (KAKSPAPGL; SITE (1)..(9): One or more of the listed amino acids can be phosphorylated as set forth in the Tables; listed as Homo sapiens) [compound 436],–,–,1 (1 indicates <1 copy/cell),0,0,0,0,0,0,0,0,–
440 (KLIDRTESL; SITE (1)..(9): One or more of the listed amino acids can be phosphorylated as set forth in the Tables; listed as Homo sapiens) [compound 440],–,–,2 (2 indicates 1-5 copies/cell),1 (1 indicates <1 copy/cell),1 (1 indicates <1 copy/cell),2 (2 indicates 1-5 copies/cell),0,2 (2 indicates 1-5 copies/cell),0,0,0,–
444 (KMDSFLDMQL; SITE (1)..(10): One or more of the listed amino acids can be phosphorylated as set forth in the Tables; listed as Homo sapiens) [compound 444],–,–,0,0,1 (1 indicates <1 copy/cell),2 (2 indicates 1-5 copies/cell),0,0,0,0,0,–
451 (RQASIELPSM; SITE (1)..(10): One or more of the listed amino acids can be phosphorylated as set forth in the Tables; listed as Homo sapiens) [compound 451],–,–,2 (2 indicates 1-5 copies/cell),1 (1 indicates <1 copy/cell),1 (1 indicates <1 copy/cell),4 (4 indicates >25 copies per cell),1 (1 indicates <1 copy/cell),2 (2 indicates 1-5 copies/cell),2 (2 indicates 1-5 copies/cell),2 (2 indicates 1-5 copies/cell),1 (1 indicates <1 copy/cell),–
456 (RQLSSGVSEI; SITE (1)..(10): One or more of the listed amino acids can be phosphorylated as set forth in the Tables; listed as Homo sapiens) [compound 456],–,–,0,1 (1 indicates <1 copy/cell),0,0,0,0,0,0,0,–
457 (RTFSPTYGL; SITE (1)..(9): One or more of the listed amino acids can be phosphorylated as set forth in the Tables; listed as Homo sapiens) [compound 457],–,–,0,1 (1 indicates <1 copy/cell),0,0,0,0,0,0,0,–
